# Molecular target: human serum albumin (HSA) (human), P02768
# Assay: FP
# Details: modification not given
row,Binder,Kd
1,AEGTGDFWFCDRIAWYAQHLCEFLDPEGGGK [DX-236 Ala mutant 120],1300 nM
2,AEGTGDFAFCDRIAWYPQHLCEFLDPEGGGK [DX-236 Ala mutant 127],2300 nM
3,AEGTGAFWFCDRIAWYPQHLCEFLDPEGGGK [DX-236 Ala mutant 129],5100 nM
4,AEGTGDFWFCDAIAWYPQHLCEFLDPEGGGK [DX-236 Ala mutant 124],1500 nM
5,AEGTGDFWFCDRIAAYPQHLCEFLDPEGGGK [DX-236 Ala mutant 122],1400 nM
6,AEGTGDFWFCARIAWYPQHLCEFLDPEGGGK [DX-236 Ala mutant 125],5000 nM
7,AEGTGDAWFCDRIAWYPQHLCEFLDPEGGGK [DX-236 Ala mutant 128],5100 nM
8,AEGTGDFWFCDRIAWYPAHLCEFLDPEGGGK [DX-236 Ala mutant 119],2200 nM
9,AEGTGDFWFCDRIAWAPQHLCEFLDPEGGGK [DX-236 Ala mutant 121],1400 nM
10,AEGTGDFWFCDRIAWYPQHACEFLDPEGGGK [DX-236 Ala mutant 117],2000 nM
